B1: Mcm2 (natural protein)
chain: MSDNRRRRREEDDSDSENELPPSSPQQHFRGGMNPVSSPIGSPDMINPEGDDNEVDDVPDIDEVEEQMNEVDLMDDNMYEDYAADHNRDRYDPDQVDDREQQELSLSERRRIDAQLNERDRLLRNVAYIDDEDEEQEGAAQLDEMGLPVQRRRRRRQYEDLENSDDDLLSDMDIDPLREELTLESLSNVKANSYSEWITQPNVSRTIARELKSFLLEYTDETGRSVYGARIRTLGEMNSESLEVNYRHLAESKAILALFLAKCPEEMLKIFDLVAMEATELHYPDYARIHSEIHVRISDFPTIYSLRELRESNLSSLVRVTGVVTRRTGVFPQLKYVKFNCLKCGSILGPFFQDSNEEIRISFCTNCKSKGPFRVNGEKTVYRNYQRVTLQEAPGTVPPGRLPRHREVILLADLVDVSKPGEEVEVTGIYKNNYDGNLNAKNGFPVFATIIEANSIKRREGNTANEGEEGLDVFSWTEEEEREFRKISRDRGIIDKIISSMAPSIYGHRDIKTAVACSLFGGVPKNVNGKHSIRGDINVLLLGDPGTAKSQILKYVEKTAHRAVFATGQGASAVGLTASVRKDPITKEWTLEGGALVLADKGVCLIDEFDKMNDQDRTSIHEAMEQQSISISKAGIVTTLQARCSIIAAANPNGGRYNSTLPLAQNVSLTEPILSRFDILCVVRDLVDEEADERLATFVVDSHVRSHPENDEDREGEELKNNGESAIEQGEDEINEQLNARQRRLQRQRKKEEEISPIPQELLMKYIHYARTKIYPKLHQMDMDKVSRVYADLRRESISTGSFPITVRHLESILRIAESFAKMRLSEFVSSYDLDRAIKVVVDSFVDAQKVSVRRQLRRSFAIYTLGH

Tests used:
Mcm3 [1] = biological target: T1, Mcm3 (S. cerevisiae, UniProt P24279 1-971); assay: co-IP
T1 sequence (P24279 whole entry): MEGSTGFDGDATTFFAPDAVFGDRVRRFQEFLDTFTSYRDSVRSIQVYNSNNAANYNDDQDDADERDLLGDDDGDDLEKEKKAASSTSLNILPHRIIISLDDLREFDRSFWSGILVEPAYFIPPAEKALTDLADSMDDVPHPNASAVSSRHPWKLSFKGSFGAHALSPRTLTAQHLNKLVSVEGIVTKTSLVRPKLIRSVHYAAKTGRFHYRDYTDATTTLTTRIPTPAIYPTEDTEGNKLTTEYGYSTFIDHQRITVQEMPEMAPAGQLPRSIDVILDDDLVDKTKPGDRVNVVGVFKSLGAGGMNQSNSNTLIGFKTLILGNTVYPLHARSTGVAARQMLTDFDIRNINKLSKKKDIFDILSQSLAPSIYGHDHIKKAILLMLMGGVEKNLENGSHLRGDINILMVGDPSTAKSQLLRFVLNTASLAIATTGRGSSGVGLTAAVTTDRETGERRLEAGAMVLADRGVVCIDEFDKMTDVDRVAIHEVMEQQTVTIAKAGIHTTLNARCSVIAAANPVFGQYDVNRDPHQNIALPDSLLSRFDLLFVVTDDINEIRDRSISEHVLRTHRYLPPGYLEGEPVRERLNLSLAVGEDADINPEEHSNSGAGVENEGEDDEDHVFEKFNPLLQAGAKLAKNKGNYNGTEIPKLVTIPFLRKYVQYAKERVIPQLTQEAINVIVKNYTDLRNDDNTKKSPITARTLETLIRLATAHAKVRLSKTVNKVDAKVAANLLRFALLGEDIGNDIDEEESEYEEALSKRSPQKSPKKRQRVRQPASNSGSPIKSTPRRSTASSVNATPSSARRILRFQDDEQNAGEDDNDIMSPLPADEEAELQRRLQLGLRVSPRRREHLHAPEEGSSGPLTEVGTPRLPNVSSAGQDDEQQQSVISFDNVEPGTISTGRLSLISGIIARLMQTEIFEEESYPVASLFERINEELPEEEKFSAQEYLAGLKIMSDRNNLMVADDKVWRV

Mcm4 [2] = biological target: T2, Mcm4 (S. cerevisiae, UniProt P30665 1-933); assay: co-IP
T2 sequence: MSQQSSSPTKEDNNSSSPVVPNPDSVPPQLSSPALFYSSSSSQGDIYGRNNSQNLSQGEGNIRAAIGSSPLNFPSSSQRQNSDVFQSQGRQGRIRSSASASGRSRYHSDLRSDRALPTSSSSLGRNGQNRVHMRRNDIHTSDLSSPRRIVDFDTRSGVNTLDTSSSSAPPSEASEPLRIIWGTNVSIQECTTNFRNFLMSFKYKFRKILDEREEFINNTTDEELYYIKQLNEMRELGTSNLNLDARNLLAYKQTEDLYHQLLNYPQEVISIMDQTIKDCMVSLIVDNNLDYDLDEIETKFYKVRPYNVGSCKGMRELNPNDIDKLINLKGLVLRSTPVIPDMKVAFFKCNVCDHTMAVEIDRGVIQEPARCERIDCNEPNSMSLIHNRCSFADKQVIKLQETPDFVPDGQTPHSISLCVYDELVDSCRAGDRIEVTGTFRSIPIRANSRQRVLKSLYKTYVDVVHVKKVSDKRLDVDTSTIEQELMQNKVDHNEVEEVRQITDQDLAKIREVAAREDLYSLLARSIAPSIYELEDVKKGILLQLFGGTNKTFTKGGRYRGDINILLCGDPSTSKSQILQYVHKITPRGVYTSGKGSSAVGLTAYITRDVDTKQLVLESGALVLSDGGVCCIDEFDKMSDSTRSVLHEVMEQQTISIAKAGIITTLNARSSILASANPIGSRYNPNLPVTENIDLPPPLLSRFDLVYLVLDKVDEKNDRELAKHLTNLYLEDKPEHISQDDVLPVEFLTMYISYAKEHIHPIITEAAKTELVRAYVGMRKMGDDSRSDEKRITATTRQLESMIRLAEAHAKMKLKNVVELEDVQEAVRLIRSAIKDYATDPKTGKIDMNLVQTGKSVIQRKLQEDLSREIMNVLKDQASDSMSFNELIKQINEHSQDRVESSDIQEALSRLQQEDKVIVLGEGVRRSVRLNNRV

[3] = biological target: Origin Recognition Complex (ORC) (S. cerevisiae, UniProt P54784;P32833;P54790;P54791;P50874;P38826); assay: co-IP
Mcm2 = biological target: B1; assay: co-IP
Mcm3 [4] = biological target: T1, Mcm3; assay: cryo-EM structure
Mcm4 [5] = biological target: T2, Mcm4; assay: cryo-EM structure
MCM2-7 = MCM2-7 (S. cerevisiae, UniProt P29469;P24279;P30665;P29496;P53091;P38132); assay: co-IP
MCM2-7, sequence (P24279 whole entry, chain 2 of 4, one chain of several): as the sequence (P24279 whole entry) above
MCM2-7, sequence (P29496 whole entry, chain 4 of 4, one chain of several): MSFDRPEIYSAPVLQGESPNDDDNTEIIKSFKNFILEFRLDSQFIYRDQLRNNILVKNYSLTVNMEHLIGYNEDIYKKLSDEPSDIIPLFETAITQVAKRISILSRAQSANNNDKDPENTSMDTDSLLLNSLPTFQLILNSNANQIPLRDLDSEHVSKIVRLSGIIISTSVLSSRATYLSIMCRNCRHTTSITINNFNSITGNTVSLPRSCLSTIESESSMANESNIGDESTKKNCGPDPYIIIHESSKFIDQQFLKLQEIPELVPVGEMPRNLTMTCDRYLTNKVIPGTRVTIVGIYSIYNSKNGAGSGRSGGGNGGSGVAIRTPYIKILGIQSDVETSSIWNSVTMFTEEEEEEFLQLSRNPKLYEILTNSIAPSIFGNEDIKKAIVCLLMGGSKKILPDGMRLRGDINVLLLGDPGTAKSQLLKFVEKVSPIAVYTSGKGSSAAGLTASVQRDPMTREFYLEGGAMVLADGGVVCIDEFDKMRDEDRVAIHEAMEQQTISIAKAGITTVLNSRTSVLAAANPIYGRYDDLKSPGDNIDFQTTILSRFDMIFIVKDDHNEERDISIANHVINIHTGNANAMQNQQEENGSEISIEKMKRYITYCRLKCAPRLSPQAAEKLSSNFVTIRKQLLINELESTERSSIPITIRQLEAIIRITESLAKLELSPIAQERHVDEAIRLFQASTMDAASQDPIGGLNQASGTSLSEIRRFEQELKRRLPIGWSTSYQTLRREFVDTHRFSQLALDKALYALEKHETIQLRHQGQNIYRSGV
MCM2-7, sequence (P53091 whole entry, chain 5 of 4, one chain of several): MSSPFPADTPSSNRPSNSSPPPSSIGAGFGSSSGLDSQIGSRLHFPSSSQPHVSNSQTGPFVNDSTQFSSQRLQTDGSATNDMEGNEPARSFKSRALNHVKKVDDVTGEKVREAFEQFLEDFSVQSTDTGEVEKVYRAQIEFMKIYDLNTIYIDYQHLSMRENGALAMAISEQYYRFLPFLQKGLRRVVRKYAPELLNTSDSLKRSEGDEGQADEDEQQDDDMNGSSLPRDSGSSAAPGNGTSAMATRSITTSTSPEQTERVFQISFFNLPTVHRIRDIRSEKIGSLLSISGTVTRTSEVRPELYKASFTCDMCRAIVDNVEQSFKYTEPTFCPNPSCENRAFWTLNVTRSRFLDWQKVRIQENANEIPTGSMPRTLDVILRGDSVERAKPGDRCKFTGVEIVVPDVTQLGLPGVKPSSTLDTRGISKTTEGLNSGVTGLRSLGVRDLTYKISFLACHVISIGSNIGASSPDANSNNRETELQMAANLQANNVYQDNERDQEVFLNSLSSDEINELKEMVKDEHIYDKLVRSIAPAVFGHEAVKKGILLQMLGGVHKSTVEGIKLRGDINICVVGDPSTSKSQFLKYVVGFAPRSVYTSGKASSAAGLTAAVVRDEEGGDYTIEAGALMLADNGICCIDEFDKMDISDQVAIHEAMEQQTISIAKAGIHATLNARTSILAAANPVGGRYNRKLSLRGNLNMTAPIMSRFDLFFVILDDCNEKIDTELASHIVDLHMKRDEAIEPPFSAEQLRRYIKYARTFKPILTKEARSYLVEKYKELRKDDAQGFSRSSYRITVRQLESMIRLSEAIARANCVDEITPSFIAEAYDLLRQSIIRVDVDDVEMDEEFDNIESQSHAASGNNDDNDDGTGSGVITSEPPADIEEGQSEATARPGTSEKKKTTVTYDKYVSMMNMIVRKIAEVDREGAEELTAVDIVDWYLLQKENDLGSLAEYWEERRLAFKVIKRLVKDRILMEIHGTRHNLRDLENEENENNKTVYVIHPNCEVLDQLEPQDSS

MCM2-7-ΔC3 = MCM2-7-ΔC3 (S. cerevisiae, UniProt P29469;P24279;P30665;P29496;P53091;P38132); assay: co-IP
MCM2-7-ΔC3, sequence (P24279 1-739, stated change not applied, chain 2 of 4, one chain of several): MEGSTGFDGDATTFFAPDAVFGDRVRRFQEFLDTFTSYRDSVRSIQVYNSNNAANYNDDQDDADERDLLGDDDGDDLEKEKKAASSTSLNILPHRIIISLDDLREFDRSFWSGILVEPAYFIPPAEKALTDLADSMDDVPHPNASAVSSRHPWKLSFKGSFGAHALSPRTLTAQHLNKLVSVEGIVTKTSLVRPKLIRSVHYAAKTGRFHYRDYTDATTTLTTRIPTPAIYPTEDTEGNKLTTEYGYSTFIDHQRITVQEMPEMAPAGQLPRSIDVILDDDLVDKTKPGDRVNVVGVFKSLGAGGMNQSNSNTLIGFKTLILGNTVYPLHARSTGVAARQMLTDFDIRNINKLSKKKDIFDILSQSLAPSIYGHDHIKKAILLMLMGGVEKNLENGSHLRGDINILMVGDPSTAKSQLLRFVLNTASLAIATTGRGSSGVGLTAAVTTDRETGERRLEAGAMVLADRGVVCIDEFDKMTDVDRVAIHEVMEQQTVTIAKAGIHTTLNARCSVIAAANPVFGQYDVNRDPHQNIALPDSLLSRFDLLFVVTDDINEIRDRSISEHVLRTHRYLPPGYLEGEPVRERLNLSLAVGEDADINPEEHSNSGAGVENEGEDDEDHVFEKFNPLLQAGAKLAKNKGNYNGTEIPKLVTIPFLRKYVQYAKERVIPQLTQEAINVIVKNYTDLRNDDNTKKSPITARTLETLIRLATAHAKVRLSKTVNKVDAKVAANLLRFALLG
MCM2-7-ΔC3, sequence (P29496 whole entry, stated change not applied, chain 4 of 4, one chain of several): as the sequence (P29496 whole entry, chain 4 of 4, one chain of several) above
MCM2-7-ΔC3, sequence (P53091 whole entry, stated change not applied, chain 5 of 4, one chain of several): as the sequence (P53091 whole entry, chain 5 of 4, one chain of several) above

B1: binds (Mcm3 [1]); binds (Mcm4 [2]); binds [3].

B2: Mcm7 (natural protein)
chain: MSAALPSIQLPVDYNNLFNEITDFLVTFKQDTLSSDATRNENEDENLDAENIEQHLLEKGPKYMAMLQKVANRELNSVIIDLDDILQYQNEKFLQGTQADDLVSAIQQNANHFTELFCRAIDNNMPLPTKEIDYKDDVLDVILNQRRLRNERMLSDRTNEIRSENLMDTTMDPPSSMNDALREVVEDETELFPPNLTRRYFLYFKPLSQNCARRYRKKAISSKPLSVRQIKGDFLGQLITVRGIITRVSDVKPAVEVIAYTCDQCGYEVFQEVNSRTFTPLSECTSEECSQNQTKGQLFMSTRASKFSAFQECKIQELSQQVPVGHIPRSLNIHVNGTLVRSLSPGDIVDVTGIFLPAPYTGFKALKAGLLTETYLEAQFVRQHKKKFASFSLTSDVEERVMELITSGDVYNRLAKSIAPEIYGNLDVKKALLLLLVGGVDKRVGDGMKIRGDINVCLMGDPGVAKSQLLKAICKISPRGVYTTGKGSSGVGLTAAVMKDPVTDEMILEGGALVLADNGICCIDEFDKMDESDRTAIHEVMEQQTISISKAGINTTLNARTSILAAANPLYGRYNPRLSPLDNINLPAALLSRFDILFLMLDIPSRDDDEKLAEHVTYVHMHNKQPDLDFTPVEPSKMREYIAYAKTKRPVMSEAVNDYVVQAYIRLRQDSKREMDSKFSFGQATPRTLLGIIRLSQALAKLRLADMVDIDDVEEALRLVRVSKESLYQETNKSKEDESPTTKIFTIIKKMLQETGKNTLSYENIVKTVRLRGFTMLQLSNCIQEYSYLNVWHLINEGNTLKFVDDGTMDTDQEDSLVSTPKLAPQTTASANVSAQDSDIDLQDA
B2: binds (Mcm2); binds (Mcm3 [4]); binds (Mcm4 [5]).

B3: MBP-Cdc6 (natural protein)
chain: MSAIPITPTKRIRRNLFDDAPATPPRPLKRKKLQFTDVTPESSPEKLQFGSQSIFLRTKALLQKSSELVNLNSSDGALPARTAEYEQVMNFLAKAISEHRSDSLYITGPPGTGKTAQLDMIIRQKFQSLPLSLSTPRSKDVLRHTNPNLQNLSWFELPDGRLESVAVTSINCISLGEPSSIFQKIFDSFQDLNGPTLQIKNMQHLQKFLEPYHKKTTFVVVLDEMDRLLHANTSETQSVRTILELFLLAKLPTVSFVLIGMANSLDMKDRFLSRLNLDRGLLPQTIVFQPYTAEQMYEIVIQKMSSLPTIIFQPMAIKFAAKKCAGNTGDLRKLFDVLRGSIEIYELEKRFLLSPTRGSLNSAQVPLTPTTSPVKKSYPEPQGKIGLNYIAKVFSKFVNNNSTRTRIAKLNIQQKLILCTIIQSLKLNSDATIDESFDHYIKAITKTDTLAPLQRNEFLEICTILETCGLVSIKKTKCKGKTKRFVDKIDVDLDMREFYDEMTKISILKPFLH
B3: binds (MCM2-7); binds (MCM2-7-ΔC3).

From PMC3735830 (Nature structural & molecular biology, 2013)
